47 variants from the Human Domainome abundance scans (Beltran et al. 2025) can be followed below.

± gives the uncertainty stated by the source.

The chains are these.
B1: 1-phosphatidylinositol 4,5-bisphosphate phosphodiesterase gamma-2, residues 772 to 827; numbered along this chain, P16885 (parent)
chain: RTVKALYDYKAKRSDELSFCRGALIHNVSKEPGGWWKGDYGTRIQQYFPSNYVEDI

Variants of B1 are the subject of the series. Description: abundance fitness (aPCA) (normalised: wild type 0, dead -1); higher = more abundant; growth selection in yeast, the domain comes from the species named. Particulars: Homo sapiens.
For RTVKALYRYKAKRSDELSFCRGALIHNVSKEPGGWWKGDYGTRIQQYFPSNYVEDI [D8R], the abundance fitness is -0.452 ± 0.059. With RTVKALYMYKAKRSDELSFCRGALIHNVSKEPGGWWKGDYGTRIQQYFPSNYVEDI [D8M], the abundance fitness is -0.579 ± 0.13. Consider RTVKALYFYKAKRSDELSFCRGALIHNVSKEPGGWWKGDYGTRIQQYFPSNYVEDI [D8F], for which the abundance fitness is -0.382 ± 0.24. Regarding RTVKALYWYKAKRSDELSFCRGALIHNVSKEPGGWWKGDYGTRIQQYFPSNYVEDI [D8W], the abundance fitness is -0.634 ± 0.18. Take RTVKALYGYKAKRSDELSFCRGALIHNVSKEPGGWWKGDYGTRIQQYFPSNYVEDI [D8G]: the abundance fitness was -0.083 ± 0.072. As to RTVKALYYYKAKRSDELSFCRGALIHNVSKEPGGWWKGDYGTRIQQYFPSNYVEDI [D8Y], the abundance fitness was -0.576 ± 0.1. For the variant RTVKALYTYKAKRSDELSFCRGALIHNVSKEPGGWWKGDYGTRIQQYFPSNYVEDI [D8T], the abundance fitness is 0.078 ± 0.095. Turning to RTVKALYVYKAKRSDELSFCRGALIHNVSKEPGGWWKGDYGTRIQQYFPSNYVEDI [D8V], the abundance fitness was -0.982 ± 0.2. For RTVKALYSYKAKRSDELSFCRGALIHNVSKEPGGWWKGDYGTRIQQYFPSNYVEDI [D8S], the abundance fitness is -0.059 ± 0.076. For the variant RTVKALYEYKAKRSDELSFCRGALIHNVSKEPGGWWKGDYGTRIQQYFPSNYVEDI [D8E], the abundance fitness was -0.17 ± 0.09. In the case of RTVKALYCYKAKRSDELSFCRGALIHNVSKEPGGWWKGDYGTRIQQYFPSNYVEDI [D8C] it was -0.105 ± 0.074; in that of RTVKALYNYKAKRSDELSFCRGALIHNVSKEPGGWWKGDYGTRIQQYFPSNYVEDI [D8N], -0.059 ± 0.054. In the case of RTVKALYAYKAKRSDELSFCRGALIHNVSKEPGGWWKGDYGTRIQQYFPSNYVEDI [D8A] it was 0.068 ± 0.09; in that of RTVKALYDEKAKRSDELSFCRGALIHNVSKEPGGWWKGDYGTRIQQYFPSNYVEDI [Y9E], -0.868 ± 0.31; in that of RTVKALYDWKAKRSDELSFCRGALIHNVSKEPGGWWKGDYGTRIQQYFPSNYVEDI [Y9W], -0.223 ± 0.098.

RTVKALYDKKAKRSDELSFCRGALIHNVSKEPGGWWKGDYGTRIQQYFPSNYVEDI [Y9K]: the abundance fitness is -0.816 ± 0.25. Regarding RTVKALYDRKAKRSDELSFCRGALIHNVSKEPGGWWKGDYGTRIQQYFPSNYVEDI [Y9R], the abundance fitness was -0.685 ± 0.098.

As for RTVKALYDVKAKRSDELSFCRGALIHNVSKEPGGWWKGDYGTRIQQYFPSNYVEDI [Y9V], the abundance fitness is -1.07 ± 0.33. Consider RTVKALYDGKAKRSDELSFCRGALIHNVSKEPGGWWKGDYGTRIQQYFPSNYVEDI [Y9G], for which the abundance fitness was -0.949 ± 0.11. Regarding RTVKALYDPKAKRSDELSFCRGALIHNVSKEPGGWWKGDYGTRIQQYFPSNYVEDI [Y9P], the abundance fitness is -0.734 ± 0.3.

With RTVKALYDLKAKRSDELSFCRGALIHNVSKEPGGWWKGDYGTRIQQYFPSNYVEDI [Y9L], the abundance fitness was -0.923 ± 0.19. As to RTVKALYDTKAKRSDELSFCRGALIHNVSKEPGGWWKGDYGTRIQQYFPSNYVEDI [Y9T], the abundance fitness is -0.931 ± 0.24. In the case of RTVKALYDSKAKRSDELSFCRGALIHNVSKEPGGWWKGDYGTRIQQYFPSNYVEDI [Y9S] it was -0.939 ± 0.27; in that of RTVKALYDHKAKRSDELSFCRGALIHNVSKEPGGWWKGDYGTRIQQYFPSNYVEDI [Y9H], -0.164 ± 0.26; in that of RTVKALYDCKAKRSDELSFCRGALIHNVSKEPGGWWKGDYGTRIQQYFPSNYVEDI [Y9C], 0.089 ± 0.17.

As for RTVKALCDYKAKRSDELSFCRGALIHNVSKEPGGWWKGDYGTRIQQYFPSNYVEDI [Y7C], the abundance fitness is -0.118 ± 0.14. Consider RTVKALRDYKAKRSDELSFCRGALIHNVSKEPGGWWKGDYGTRIQQYFPSNYVEDI [Y7R], for which the abundance fitness amounted to 0.169 ± 0.073. As to RTVKALSDYKAKRSDELSFCRGALIHNVSKEPGGWWKGDYGTRIQQYFPSNYVEDI [Y7S], the abundance fitness was -0.109 ± 0.078. As to RTVKALIDYKAKRSDELSFCRGALIHNVSKEPGGWWKGDYGTRIQQYFPSNYVEDI [Y7I], the abundance fitness was -0.165 ± 0.41. On to RTVKALKDYKAKRSDELSFCRGALIHNVSKEPGGWWKGDYGTRIQQYFPSNYVEDI [Y7K], for which the abundance fitness was 0.158 ± 0.078.

Consider RTVKALFDYKAKRSDELSFCRGALIHNVSKEPGGWWKGDYGTRIQQYFPSNYVEDI [Y7F], for which the abundance fitness turned out to be 0.126 ± 0.1. Regarding RTVKALTDYKAKRSDELSFCRGALIHNVSKEPGGWWKGDYGTRIQQYFPSNYVEDI [Y7T], the abundance fitness was -0.267 ± 0.1. Consider RTVKALHDYKAKRSDELSFCRGALIHNVSKEPGGWWKGDYGTRIQQYFPSNYVEDI [Y7H], for which the abundance fitness was -0.015 ± 0.45.

Consider RTVKALVDYKAKRSDELSFCRGALIHNVSKEPGGWWKGDYGTRIQQYFPSNYVEDI [Y7V], for which the abundance fitness is -0.2 ± 0.065. Turning to RTVKALMDYKAKRSDELSFCRGALIHNVSKEPGGWWKGDYGTRIQQYFPSNYVEDI [Y7M], the abundance fitness was -0.059 ± 0.079. In the case of RTVKALQDYKAKRSDELSFCRGALIHNVSKEPGGWWKGDYGTRIQQYFPSNYVEDI [Y7Q], the abundance fitness came to 0.2 ± 0.093. As to RTVKALADYKAKRSDELSFCRGALIHNVSKEPGGWWKGDYGTRIQQYFPSNYVEDI [Y7A], the abundance fitness was 0.01 ± 0.066. For the variant RTVKALDDYKAKRSDELSFCRGALIHNVSKEPGGWWKGDYGTRIQQYFPSNYVEDI [Y7D], the abundance fitness was -0.282 ± 0.31. As for RTVKALLDYKAKRSDELSFCRGALIHNVSKEPGGWWKGDYGTRIQQYFPSNYVEDI [Y7L], the abundance fitness is -0.077 ± 0.074. Take RTVKALGDYKAKRSDELSFCRGALIHNVSKEPGGWWKGDYGTRIQQYFPSNYVEDI [Y7G]: the abundance fitness is -0.35 ± 0.051. In the case of RTVKALNDYKAKRSDELSFCRGALIHNVSKEPGGWWKGDYGTRIQQYFPSNYVEDI [Y7N] it was -0.375 ± 0.29; in that of RTVKALEDYKAKRSDELSFCRGALIHNVSKEPGGWWKGDYGTRIQQYFPSNYVEDI [Y7E], -0.117 ± 0.093; in that of RTVKALYDYKQKRSDELSFCRGALIHNVSKEPGGWWKGDYGTRIQQYFPSNYVEDI [A11Q], -0.176 ± 0.19. Turning to RTVKALYDYKLKRSDELSFCRGALIHNVSKEPGGWWKGDYGTRIQQYFPSNYVEDI [A11L], the abundance fitness was -1.05 ± 0.14. Take RTVKALYDYKEKRSDELSFCRGALIHNVSKEPGGWWKGDYGTRIQQYFPSNYVEDI [A11E]: the abundance fitness is -0.775 ± 0.25. Take RTVKALYDYKPKRSDELSFCRGALIHNVSKEPGGWWKGDYGTRIQQYFPSNYVEDI [A11P]: the abundance fitness is -0.446 ± 0.27. With RTVKALYDYKCKRSDELSFCRGALIHNVSKEPGGWWKGDYGTRIQQYFPSNYVEDI [A11C], the abundance fitness was -0.819 ± 0.11.
